The target of the series is purified recombinant human α-synuclein protein, P37840.

B1: purified guinea pig liver tTGase (protein)
chain: AEDLILERCDLQLEVNGRDHRTADLCRERLVLRRGQPFWLTLHFEGRGYEAGVDTLTFNAVTGPDPSEEAGTMARFSLSSAVEGGTWSASAVDQQDSTVSLLLSTPADAPIGLYRLSLEASTGYQGSSFVLGHFILLYNPRCPADAVYMDSDQERQEYVLTQQGFIYQGSAKFINGIPWNFGQFEDGILDICLMLLDTNPKFLKNAGQDCSRRSRPVYVGRVVSAMVNCNDDQGVLQGRWDNNYSDGVSPMSWIGSVDILRRWKDYGCQRVKYGQCWVFAAVACTVLRCLGIPTRVVTNFNSAHDQNSNLLIEYFRNESGEIEGNKSEMIWNFHCWVESWMTRPDLEPGYEGWQALDPTPQEKSEGTYCCGPVPVRAIKEGHLNVKYDAPFVFAEVNADVVNWIRQKDGSLRKSINHLVVGLKISTKSVGRDEREDITHTYKYPEGSEEEREAFVRANHLNKLATKEEAQEETGVAMRIRVGQNMTMGSDFDIFAYITNGTAESHECQLLLCARIVSYNGVLGPVCSTNDLLNLTLDPFSENSIPLHILYEKYGDYLTESNLIKVRGLLIEPAANSYVLAERDIYLENPEIKIRVLGEPKQNRKLIAEVSLKNPLPVPLLGCIFTVEGAGLTKDQKSVEVPDPVEAGEQAKVRVDLLPTEVGLHKLVVNFECDKLKAVKGYRNVIIGPA
B1: the “formation of high molecular weight aggregates of α-synuclein (in vitro cross-linking reaction, SDS/PAGE and Western blot)” value was “In the presence of DTT, the reduced form of tTGase induced the formation of high molecular weight aggregates of α-synuclein”.
